Reference: patent US20020119153A1 (University of Texas, published 2002)

What was measured:
[1] = target: T1, mouse VEGF (mouse, UniProt Q00731-2 27-190, limits assumed); test: indirect ELISA
T1 construct: In indirect ELISA (source not described) and in mouse 3LL tumor sections
T1 sequence (looked up): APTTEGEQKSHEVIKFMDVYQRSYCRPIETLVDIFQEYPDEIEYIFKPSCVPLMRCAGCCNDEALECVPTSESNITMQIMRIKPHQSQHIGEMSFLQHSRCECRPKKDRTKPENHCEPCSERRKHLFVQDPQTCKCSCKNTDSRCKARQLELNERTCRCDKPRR

[2] = target: T2, recombinant human VEGF165 (human, UniProt P15692 27-191); test: printed as 'Affinity'; estimated by ELISA and surface plasmon resonance analysis
T2 construct: mature; Secreted VEGF is described as an obligate dimer; also called free VEGF; VEGF-biotin

[3] = target: T2, recombinant human VEGF165; test: capture ELISA: biotinylated VEGF titrated onto wells coated with the antibody, peroxidase-avidin; concentration giving 50% maximal binding
[4] = target: T3, VEGF:sFlk-1 complex (human; mouse, UniProt P15692 27-191; P35918 20-762, limits assumed, biotinylated); test: capture ELISA: biotinylated sFlk-1 complexed with VEGF titrated onto wells coated with the antibody; concentration giving 50% maximal binding
T3 construct: mature;extracellular domain; also called VEGF:receptor complex
T3 sequence (P35918 20-762 limits assumed, one chain of several): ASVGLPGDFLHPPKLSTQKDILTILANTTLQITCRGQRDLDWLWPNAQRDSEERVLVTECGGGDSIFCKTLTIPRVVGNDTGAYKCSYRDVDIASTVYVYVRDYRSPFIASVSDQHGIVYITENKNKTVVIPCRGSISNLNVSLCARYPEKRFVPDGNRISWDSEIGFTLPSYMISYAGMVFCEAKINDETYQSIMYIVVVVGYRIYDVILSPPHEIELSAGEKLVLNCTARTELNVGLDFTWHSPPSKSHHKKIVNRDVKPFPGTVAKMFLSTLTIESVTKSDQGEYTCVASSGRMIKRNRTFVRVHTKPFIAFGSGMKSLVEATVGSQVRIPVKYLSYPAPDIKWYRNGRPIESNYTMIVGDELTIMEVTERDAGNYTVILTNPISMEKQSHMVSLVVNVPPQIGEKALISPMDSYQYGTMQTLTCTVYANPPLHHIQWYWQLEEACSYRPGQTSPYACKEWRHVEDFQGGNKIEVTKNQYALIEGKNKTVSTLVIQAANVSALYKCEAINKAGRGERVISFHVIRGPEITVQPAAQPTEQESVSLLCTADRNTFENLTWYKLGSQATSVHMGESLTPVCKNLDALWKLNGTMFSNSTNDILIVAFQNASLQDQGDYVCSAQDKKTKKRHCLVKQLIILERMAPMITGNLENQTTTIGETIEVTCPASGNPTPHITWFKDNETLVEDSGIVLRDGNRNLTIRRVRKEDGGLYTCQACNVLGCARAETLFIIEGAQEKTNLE

[5] = target: T2, recombinant human VEGF165; test: ELISA on VEGF coated wells, HRP-labelled anti-mouse IgG and OPD

Binder | binding result [1] | Kd [2] | EC50 [3] | EC50 [4] | EC50 [5]
monoclonal antibody 2C3 (ATCC PTA 1595) (antibody, V domains shown, also called 2C3 IgG) VH: QVQLQESGPELVKPGASVKMSCKASGYTFTSYVFHWVKQKPGQGLEWIGYINPYNDVTKYNEKFKGKATLTSDKSSSTAYMELSSLTSEDSAVYYCASYYGSSYGYYAMDDWGQGTTVTVSS VL: DIQLTQSPASLSVSAGEKVTMSCKSSQSLLNSGNQKNYLAWYQQKPGQPPKLLIHGASTRESGVPDRFTGSGSGTDFTLTISSVQAEDLAVYYCQNDYSYPLTFGAGTKLELKR | no binding | 1 nM | 1 nM | 150 nM | 
2C3-GUS conjugate (other, SATA-modified, deacetylated; SMCC-modified IgG, linked by thioether to SATA-modified GUS, Chemical conjugate of 2C3 IgG (mouse IgG2a,k) and 6-His GUS; GUS runs as a tetramer of about 300 kDa on gel filtration; not shown: N-terminal 6x histidine tag encoded by vector H6pQE60) VH: KLQVQLQESGPELVKPGASVKMSCKASGYTFTSYVFHWVKQKPGQGLEWIGYINPYNDVTKYNEKFKGKATLTSDKSSSTAYMELSSLTSEDSAVYYCASYYGSSYGYYAMDDWGQGTTVTVSSGGG VL: DIQLTQSPASLSVSAGEKVTMSCKSSQSLLNSGNQKNYLAWYQQKPGQPPKLLIHGASTRESGVPDRFTGSGSGTDFTLTISSVQAEDLAVYYCQNDYSYPLTFGAGTKLELKRL MLRPVETPTREIKKLDGLWAFSLDRENCGIDQRWWESALQESRAIAVPGSFNDQFADADIRNYAGNVWYQREVFIPKGWAGQRIVLRFDAVTHYGKVWVNNQEVMEHQGGYTPFEADVTPYVIAGKSVRITVCVNNELNWQTIPPGMVITDENGKKKQSYFHDFFNYAGIHRSVMLYTTPNTWVDDITVVTHVAQDCNHASVDWQVVANGDVSVELRDADQQVVATGQGTSGTLQVVNPHLWQPGEGYLYELCVTAKSQTECDIYPLRVGIRSVAVKGEQFLINHKPFYFTGFGRHEDADLRGKGFDNVLMVHDHALMDWIGANSYRTSHYPYAEEMLDWADEHGIVVIDETAAVGFNLSLGIGFEAGNKPKELYSEEAVNGETQQAHLQAIKELIARDKNHPSVVMWSIANEPDTRPQGAREYFAPLAEATRKLDPTRPITCVNVMFCDAHTDTISDLFDVLCLNRYYGWYVQSGDLETAEKVLEKELLAWQEKLHQPIIITEYGVDTLAGLHSMYTDMWSEEYQCAWLDMYHRVFDRVSAVVGEQVWNFADFATSQGILRVGGNKKGIFTRDRKPKSAAFLLQKRWTGMNFGEKPQQGGKQ |  |  |  |  | 0.1 nM
